Measured values reported in IntAct's records for PubMed 16754960.

B1: Ras-related protein Rab-21 (Mus musculus), P35282 (parent)
chain: MAAAGGGAAAAAGRAYSFKVVLLGEGCVGKTSLVLRYCENKFNDKHITTLQASFLTKKLNIGGKRVNLAIWDTAGQERFHALGPIYYRDSNGAILVYDVTDEDSFQKVKNWVKELRKMLGNEICLCIVGNKIDLEKERHVSIQEAESYAESVGAKHYHTSAKQNKGIEELFLDLCKRMIETAQVDERAKGNGSSQAGAARRGVQIIDDEPQAQSSGGCCSSG

Key:
itb1_human ITGB1, P05556 [1] = variants of: B1; settings: with itb1_human ITGB1, P05556
ita2_human ITGA2, P17301 = variants of: B1; settings: with ita2_human ITGA2, P17301
itb1_human ITGB1, P05556 [2] = variants of: B1; settings: with itb1_human ITGB1, P05556; remark: listed apart in the source

Chain of ita2_human ITGA2, P17301 (P17301 whole entry): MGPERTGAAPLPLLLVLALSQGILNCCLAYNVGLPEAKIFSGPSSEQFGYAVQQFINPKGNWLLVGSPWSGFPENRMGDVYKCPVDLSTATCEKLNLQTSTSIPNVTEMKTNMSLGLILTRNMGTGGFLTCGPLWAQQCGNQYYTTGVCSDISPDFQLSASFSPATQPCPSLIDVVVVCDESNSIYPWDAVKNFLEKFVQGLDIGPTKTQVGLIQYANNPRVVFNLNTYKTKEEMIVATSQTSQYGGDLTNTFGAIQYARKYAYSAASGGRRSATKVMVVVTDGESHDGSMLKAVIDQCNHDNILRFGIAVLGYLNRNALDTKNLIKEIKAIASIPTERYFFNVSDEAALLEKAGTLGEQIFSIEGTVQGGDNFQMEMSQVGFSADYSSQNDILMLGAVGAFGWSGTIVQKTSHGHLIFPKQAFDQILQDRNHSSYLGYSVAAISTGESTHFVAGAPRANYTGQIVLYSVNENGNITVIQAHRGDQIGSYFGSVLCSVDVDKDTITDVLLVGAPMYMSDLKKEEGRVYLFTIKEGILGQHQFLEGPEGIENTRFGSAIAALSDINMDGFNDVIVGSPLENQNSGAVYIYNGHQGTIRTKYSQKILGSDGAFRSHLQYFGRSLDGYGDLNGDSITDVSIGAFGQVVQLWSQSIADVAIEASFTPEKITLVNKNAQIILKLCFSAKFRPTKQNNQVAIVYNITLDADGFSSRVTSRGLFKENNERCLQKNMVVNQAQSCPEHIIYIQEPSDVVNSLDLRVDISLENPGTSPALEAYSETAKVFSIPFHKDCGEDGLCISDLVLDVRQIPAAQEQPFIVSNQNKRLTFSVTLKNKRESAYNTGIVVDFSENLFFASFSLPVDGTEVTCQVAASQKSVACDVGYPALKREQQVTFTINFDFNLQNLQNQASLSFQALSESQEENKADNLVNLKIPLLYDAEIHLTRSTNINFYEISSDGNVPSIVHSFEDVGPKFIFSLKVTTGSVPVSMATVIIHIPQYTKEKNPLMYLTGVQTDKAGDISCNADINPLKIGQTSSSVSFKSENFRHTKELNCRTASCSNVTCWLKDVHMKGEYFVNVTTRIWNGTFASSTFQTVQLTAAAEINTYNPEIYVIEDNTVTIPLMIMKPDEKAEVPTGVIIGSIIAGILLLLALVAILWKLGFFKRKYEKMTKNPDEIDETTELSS
Chain of itb1_human ITGB1, P05556 (P05556 whole entry): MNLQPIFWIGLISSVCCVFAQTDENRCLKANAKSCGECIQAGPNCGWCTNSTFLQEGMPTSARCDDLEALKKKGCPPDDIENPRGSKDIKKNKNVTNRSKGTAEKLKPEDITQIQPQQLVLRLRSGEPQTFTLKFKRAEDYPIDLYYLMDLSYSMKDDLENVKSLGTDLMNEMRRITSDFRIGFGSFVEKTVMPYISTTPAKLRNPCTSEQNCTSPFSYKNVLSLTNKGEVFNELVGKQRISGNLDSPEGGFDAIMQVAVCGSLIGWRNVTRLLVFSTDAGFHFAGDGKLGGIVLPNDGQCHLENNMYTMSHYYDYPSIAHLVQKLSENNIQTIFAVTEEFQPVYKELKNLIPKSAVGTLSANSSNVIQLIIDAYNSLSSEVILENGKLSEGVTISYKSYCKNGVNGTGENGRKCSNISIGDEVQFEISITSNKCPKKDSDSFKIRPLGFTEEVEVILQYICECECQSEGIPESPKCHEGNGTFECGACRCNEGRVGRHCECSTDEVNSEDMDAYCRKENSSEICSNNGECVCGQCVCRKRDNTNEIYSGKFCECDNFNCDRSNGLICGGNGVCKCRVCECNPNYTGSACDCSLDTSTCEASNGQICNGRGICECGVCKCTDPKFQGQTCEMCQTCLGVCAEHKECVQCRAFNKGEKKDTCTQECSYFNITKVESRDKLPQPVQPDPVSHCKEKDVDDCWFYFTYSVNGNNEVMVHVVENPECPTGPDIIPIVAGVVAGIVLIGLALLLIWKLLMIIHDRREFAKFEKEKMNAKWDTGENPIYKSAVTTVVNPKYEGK

Variant | effect of a mutation on the interaction (itb1_human ITGB1, P05556 [1]) | effect of a mutation on the interaction (ita2_human ITGA2, P17301) | effect of a mutation on the interaction (itb1_human ITGB1, P05556 [2])
T31N | decreasing interaction | decreasing interaction | –
Q76L | – | increasing interaction | increasing interaction
